According to paper PMC3681970, “Biochemical Characterization of UDP-N-acetylmuramoyl-L-alanyl-D-glutamate: meso-2,6-diaminopimelate ligase (MurE) from Verrucomicrobium spinosum DSM 4136^T” (PLoS ONE, 2013):

Key:
Assay in all cases: radiometric HPLC ligase assay, Michaelis-Menten fit
Format in all cases: biochemical, Verrucomicrobium spinosum
[1] = substrate: CC(=O)N[C@H]1[C@@H](OP(=O)(O)OP(=O)(O)OC[C@H]2O[C@@H](n3ccc(=O)[nH]c3=O)[C@H](O)[C@@H]2O)O[C@H](CO)[C@@H](O)[C@@H]1O[C@H](C)C(=O)N[C@@H](C)C(=O)N[C@H](CCC(=O)O)C(=O)O; conditions: 100 mM Tris-HCl pH 9.6, 30 mM MgCl2, 37°C, other substrates fixed (standard 5 mM ATP, 150 µM meso-A2pm), labelled compound (14C in D-Glu)
[2] = substrate: N[C@H](CCC[C@H](N)C(=O)O)C(=O)O; conditions: 100 mM Tris-HCl pH 9.6, 30 mM MgCl2, 37°C, other substrates fixed (standard 5 mM ATP, 150 µM UDP-MurNAc-L-Ala-D-[14C]Glu)
[3] = substrate: Nc1ncnc2c1ncn2[C@@H]1O[C@H](COP(=O)(O)OP(=O)(O)OP(=O)(O)O)[C@@H](O)[C@H]1O; conditions: 100 mM Tris-HCl pH 9.6, 30 mM MgCl2, 37°C, other substrates fixed (standard 150 µM UDP-MurNAc-L-Ala-D-[14C]Glu, 150 µM meso-A2pm)

B1: MurEVs (Verrucomicrobium spinosum) (protein)
chain: MTILRDLIEGLDKPVISGGLDVEVAGLAYDSRLVKPGFVFFALRGVKSDGHDFIPKALAEGAVAIVAETAPPEDCSVTWLHVKNARVALAEMAAAYKGHPARSMAVGGVTGTNGKTTTAFLLHHLLNHAHRRCGLLGTVVYDVGGDLKPATHTTPESLELQGLLSEMRDRGCVAVAMEVSSHAIDQHRTHGVPFAAAVFTNLSQDHLDYHGTMEEYFKAKSKLFSSTAASRSGKLVINVDDIWGRRLVDAHKEHPGLVTYGLGVAADYRAVNPRYDLTGTSFELEHKGRSLLVRIPQIGQFNVYNSLAALAAAHGMGCNLRDTVKAMQSSPQIPGRMERVTPDNHSFHVFVDYAHTPDGLVNALSTARALRPERIITVFGCGGDRDRLKRPLMARAVEEHSDISILTSDNPRTEDPQAIMDDARKGFTRSAHALIADRKEAIHTAIKGAREGDIVVIAGKGHEPYQDVQGVKHPFDDRRVARQLVDIEIRIKGEKRLEARQRRDDRQ
B1 was tested, and the Km [1] was 24 ± 6 µM, the Km [2] was 17 ± 3 µM and the Km [3] was 290 ± 70 µM.
